The chains are these.
B1: VH4/VK5 humanized 11C12 antibody (antibody, human IgG1, kappa, V domains shown)
VH: EVQLVESGGGLVQPGGSLKLSCAASGFTFSTFGIHWVRQAPGKGLEWVAYISGASTTIYYADTVKGRFTISRDNSKNTLYLQMNSLRAEDTAVYYCARYGTSFPYGLDYWGQGTLVTVSS
VL: DIVMTQSPDSLAVSLGERATINCKSSQSVDYDGDSYMNWYQQKPGKAPKLLIYGASNLESGIPDRFSGSGSGTDFTLTISRLEPEDAAVYYCQQSNEDPFTFGQGTKLEIKR
notes: Human IgG1/kappa; tested as HEK293 EBNA supernatant; also called H4K5
B2: VH1/VK0 (antibody, human IgG1, kappa, V domains shown)
VH: EVTLVESGGGLVQPGGSRKLSCAASGFTFSTFGIHWVRQAPGKGLEWVAYISGASTTIYYADTVKGRFTISRDNSKNTLYLQMNSLRSEDTAMYYCARYGTSFPYGLDYWGQGTSVTVSS
VL: DIVMTQSPGSLAVSLGQRATISCKASQSVDYDGDSYMNWYQQKPGQPPKLLIYGASNLESGIPARFSGSGSGTDFTLNIHPVEEEDAASYYCQQSNEDPFTFGSGTKLEIKR
notes: tested as HEK supernatant; also called control antibody (humanized VH1 heavy chain with chimeric light chain)
B3: VH6/VK1 humanized 11C12 antibody (antibody, human IgG1, kappa, V domains shown)
VH: EVQLVESGGGLVQPGGSLKLSCAASGFTFSTFGIHWVRQAPGKGLEWVASISGASTTIYYADSVKGRFTISRDNSKNTLYLQMNSLRAEDTAVYYCARYGTSFPYGLDYWGQGTLVTVSS
VL: DIVMTQSPGSLAVSLGERATINCKASQSVDYDGDSYMNWYQQKPGKAPKLLIYGASNLESGIPDRFSGSGSGTDFTLTISRLEEEDAASYYCQQSNEDPFTFGQGTKLEIKR
notes: Human IgG1/kappa; tested as HEK293 EBNA supernatant; also called H6K1
B4: VH5/VK1 humanized 11C12 antibody (antibody, human IgG1, kappa, V domains shown)
VH: EVQLVESGGGLVQPGGSLKLSCAASGFTFSTFGIHWVRQAPGKGLEWVAYISGASTTIYYADSVKGRFTISRDNSKNTLYLQMNSLRAEDTAVYYCARYGTSFPYGLDYWGQGTLVTVSS
VL: DIVMTQSPGSLAVSLGERATINCKASQSVDYDGDSYMNWYQQKPGKAPKLLIYGASNLESGIPDRFSGSGSGTDFTLTISRLEEEDAASYYCQQSNEDPFTFGQGTKLEIKR
notes: Human IgG1/kappa; tested as HEK293 EBNA supernatant; also called H5K1
B5: VH6/VK2 humanized 11C12 antibody (antibody, human IgG1, kappa, V domains shown)
VH: EVQLVESGGGLVQPGGSLKLSCAASGFTFSTFGIHWVRQAPGKGLEWVASISGASTTIYYADSVKGRFTISRDNSKNTLYLQMNSLRAEDTAVYYCARYGTSFPYGLDYWGQGTLVTVSS
VL: DIVMTQSPDSLAVSLGERATINCKASQSVDYDGDSYMNWYQQKPGKAPKLLIYGASNLESGIPDRFSGSGSGTDFTLTISRLEPEDAASYYCQQSNEDPFTFGQGTKLEIKR
notes: Human IgG1/kappa; tested as HEK293 EBNA supernatant; also called H6K2
B6: VH6/VK3 humanized 11C12 antibody (antibody, human IgG1, kappa, V domains shown)
VH: EVQLVESGGGLVQPGGSLKLSCAASGFTFSTFGIHWVRQAPGKGLEWVASISGASTTIYYADSVKGRFTISRDNSKNTLYLQMNSLRAEDTAVYYCARYGTSFPYGLDYWGQGTLVTVSS
VL: DIVMTQSPDSLAVSLGERATINCKASQSVDYDGDSYMNWYQQKPGKAPKLLIYGASNLESGIPDRFSGSGSGTDFTLTISRLEPEDAAVYYCQQSNEDPFTFGQGTKLEIKR
notes: Human IgG1/kappa; tested as HEK293 EBNA supernatant; also called H6K3
B7: VH5/VK5 humanized 11C12 antibody (antibody, human IgG1, kappa, V domains shown)
VH: EVQLVESGGGLVQPGGSLKLSCAASGFTFSTFGIHWVRQAPGKGLEWVAYISGASTTIYYADSVKGRFTISRDNSKNTLYLQMNSLRAEDTAVYYCARYGTSFPYGLDYWGQGTLVTVSS
VL: DIVMTQSPDSLAVSLGERATINCKSSQSVDYDGDSYMNWYQQKPGKAPKLLIYGASNLESGIPDRFSGSGSGTDFTLTISRLEPEDAAVYYCQQSNEDPFTFGQGTKLEIKR
notes: Human IgG1/kappa; tested as HEK293 EBNA supernatant; also called H5K5
B8: VH6/VK5 humanized 11C12 antibody (antibody, human IgG1, kappa, V domains shown)
VH: EVQLVESGGGLVQPGGSLKLSCAASGFTFSTFGIHWVRQAPGKGLEWVASISGASTTIYYADSVKGRFTISRDNSKNTLYLQMNSLRAEDTAVYYCARYGTSFPYGLDYWGQGTLVTVSS
VL: DIVMTQSPDSLAVSLGERATINCKSSQSVDYDGDSYMNWYQQKPGKAPKLLIYGASNLESGIPDRFSGSGSGTDFTLTISRLEPEDAAVYYCQQSNEDPFTFGQGTKLEIKR
notes: Human IgG1/kappa; tested as HEK293 EBNA supernatant; also called H6K5
B9: VH6/VK4 humanized 11C12 antibody (antibody, human IgG1, kappa, V domains shown)
VH: EVQLVESGGGLVQPGGSLKLSCAASGFTFSTFGIHWVRQAPGKGLEWVASISGASTTIYYADSVKGRFTISRDNSKNTLYLQMNSLRAEDTAVYYCARYGTSFPYGLDYWGQGTLVTVSS
VL: DIVMTQSPDSLAVSLGERATINCKSSQSVDYDGDSYMNWYQQKPGKAPKLLIYGASNLESGIPDRFSGSGSGTDFTLTISRLEPEDAASYYCQQSNEDPFTFGQGTKLEIKR
notes: Human IgG1/kappa; tested as HEK293 EBNA supernatant; also called H6K4

In general, Kd refers to the concentration at which binding is half-saturated. In general, koff refers to the rate constant with which the complex falls apart.

The target in this test is T1, recombinant human EphA5 (rhEphA5) antigen (human, UniProt P54756 25-573).
T1 construct: also called human EphA5 (R and D systems, Cat. No. 3036-A5); recombinant EphA5
T1 sequence (P54756 25-573 limits assumed): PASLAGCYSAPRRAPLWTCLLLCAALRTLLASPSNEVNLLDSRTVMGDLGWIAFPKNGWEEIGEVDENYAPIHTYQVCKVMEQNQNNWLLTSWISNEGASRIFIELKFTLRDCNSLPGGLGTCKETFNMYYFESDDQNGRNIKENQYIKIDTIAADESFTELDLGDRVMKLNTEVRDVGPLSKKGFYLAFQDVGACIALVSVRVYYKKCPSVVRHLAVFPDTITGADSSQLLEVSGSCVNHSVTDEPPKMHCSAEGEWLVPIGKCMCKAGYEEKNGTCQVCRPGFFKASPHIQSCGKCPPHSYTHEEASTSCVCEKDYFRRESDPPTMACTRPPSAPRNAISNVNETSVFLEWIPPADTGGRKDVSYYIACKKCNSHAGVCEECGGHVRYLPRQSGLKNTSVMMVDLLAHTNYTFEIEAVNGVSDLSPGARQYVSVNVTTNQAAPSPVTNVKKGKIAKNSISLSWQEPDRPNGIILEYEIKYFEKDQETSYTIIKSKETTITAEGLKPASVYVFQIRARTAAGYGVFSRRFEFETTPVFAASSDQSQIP
Kind of test: SPR single-cycle kinetics (Biacore T200), IgG from HEK supernatant captured on anti-human IgG CM5 chip, rhEphA5 as analyte, 1:1 fit. Also on record: Relative KD: reference not given here. As to the method:
Kinetic analysis was carried out on a Biacore T200. Each antibody was captured on a CM5 chip coupled with an anti-human IgG using standard amine chemistry before increasing concentrations of antigen were injected and a single off-rate was determined.
Kinetic experiments were performed at 25° C. on a Biacore T200 running Biacore T200 Control software V2.0.1 and Evaluation software V3.0 (Cytiva, Uppsala, Sweden).
HBS-P+ (Cytiva, Uppsala, Sweden), supplemented with 1% BSA (Sigma, Dorset, UK) was used as running buffer as well as for ligand and analyte dilutions. Supernatants containing IgG were diluted in running buffer to 1 μg/mL. At the start of each cycle, antibodies were loaded onto Fc2, Fc3 and Fc4 of an anti-human IgG CM5 sensor chip (Cytiva, Little Chalfont, UK). Ig were captured at a flow rate of […] to give an immobilization level (RL) of ˜60 RU. The surface was then allowed to stabilize.
On the technique in general: SPR reads the build-up and loss of mass on a sensor chip optically.
B1: the dissociation constant Kd came to 0.996 nM, the “Relative KD” value came to 0.75 and the koff was 0.00137 s⁻¹.
On to B2, for which the Kd was found to be 1.04 nM, the “Relative KD” value was determined as 0.78 and the off-rate (koff) is 0.00127 s⁻¹.
As to B3, the Kd is 10 nM, the “Relative KD” value came to 7.52 and the koff came out at 0.165 s⁻¹.
For the molecule B4, the equilibrium dissociation constant (Kd) turned out to be 0.947 nM, the “Relative KD” value amounted to 0.71 and the off-rate constant (koff) stood at 0.00127 s⁻¹.
The matching figures for B5: 9.49 nM, 7.14 and 0.165 s⁻¹.
As to B6, the equilibrium dissociation constant (Kd) is 6.52 nM, the “Relative KD” value was 4.9 and the koff was 0.341 s⁻¹.
The like results for B7 were, in that order, 1.03 nM, 0.77 and 0.0014 s⁻¹.
In the case of B8, the dissociation constant (Kd) stood at 7.1 nM, the “Relative KD” value worked out at 5.34 and the koff was 0.285 s⁻¹.
B9: the dissociation constant Kd is 9.76 nM, the “Relative KD” value came to 7.34 and the off-rate (koff) is 0.209 s⁻¹.

The record behind these values is patent publication US20240115722A1 (RUTGERS THE STATE UNIVERSITY OF NEW JERSEY, published 2024).
